Patent US20040126882A1, “Regulatable, catalytically active nucleic acids” (priority 2000, published 2004)
Like-named read-outs stand apart in the source and are kept apart here.

Columns and labels:
[1] = system: lysozyme-dependent clones; experiment: Specificity of activation of lysozyme-dependent ribozymes by proteins; assay type: biochemical
Description: (§1) Protein inactivation. Standard ligation assays were performed as described above, but in the presence of protein samples that had been pre-treated as follows. Cyt18 protein was denatured by heating for 10 min at 70° C. or by the addition of 6% SDS (0.7% SDS in ligation reaction). Lysozyme was heated 10 min at 100° C. or incubated 10 min at room temperature in the presence of 2 mM DTT (0.3 mM DTT final reaction) without inactivating the protein. The protein was successfully inactivated by heating for […] at 70° C. in the presence of 2 mM DTT. Ligation reactions were performed with 1.3 μM protein in 15 μl reactions incubated 5 min at 25° C.

[2] = system: Cyt 18-dependent population; experiment: Specificity of activation of Cyt18-dependent ribozymes by proteins; assay type: biochemical; settings: Cyt18 denatured by heating or SDS
Description: as §1

[3] = target: group I self-splicing intron; settings: cited from earlier work

Molecule | activation of lysozyme-dependent ribozyme by other proteins [1] | activation of lysozyme-dependent ribozyme by other proteins ([1]; listed as turkey egg white lysozyme) | activation of ribozyme catalysis by denatured Cyt18 [2] | Kd for group I self-splicing intron [3]
turkey lysozyme: extremely homologous (98%) turkey lysozyme (protein, UniProt P00703 19-147, looked up) Lysozyme C: KVYGRCELAAAMKRLGLDNYRGYSLGNWVCAAKFESNFNTHATNRNTDGSTDYGILQINSRWWCNDGRTPGSKNLCNIPCSALLSSDITASVNCAKKIASGGNGMNAWVAWRNRCKGTDVHAWIRGCRL | cross-activation | activated | – | –
Cyt18: tyrosyl tRNA synthetase from Neurospora mitochondria (protein, UniProt P12063 33-669, looked up) Tyrosine--tRNA ligase, …: LRREFGPKYTAKINEAEENWQARAEAIKKGKKQNTWDLFEERGYVKDTAGTKEHIAELMRTRRIGAYVGIDPTAPSLHVGHLLPLMPLFWMYLEGYKAFTLIGGSTAKIGDPTGRLKSRDHLSSSDATMNMTKIHYQLKKLWENVDTQMRARGYEADWARKRGIVNNNHWWNKQPMLEVLRRVGHALRIGPMLSRDTVKNKMTQGDGVSFAEFTYPIMQGWDWFELFYQQGVQMQIGGSDQYGNIISGLEVVKAARESEPDPQERKYVTPKTALDECVGFTVPLLTDSSGAKFGKSAGNAIWLDPYQTSVFDFYGYFVRRSDQEVENLLKLFTFMPISEITKTMEEHIKDPSKRVAQHTLAREVVTLVHGKQEASAAEDQHRMMYTGQMTIPQVSRAKDAATGGDQYKTISDQPVTLNNAPRIDMILPESLIMGKSIGRILYAAGLASSTTEGHKLAAAQGCYVGGAHRAGGENVTMNPDLISFMPVKLWFPGETQRYLINGNLLILRKGKHNVRVIQMVSDVEYAASGQTYPGQSFTGAVRKLNEIMKNLKEKKLTPEEAKNAVNELQKSSQEKQQGQQIIFPEEKSRQKKDMETKLKQEMIASVKTIDGMMDEKPSVRGDGVKKQTQDDRDPYKW | inactive | – | unable to activate | femptomolar range
lysozyme from human milk: lysozyme from human milk (protein, UniProt P61626 19-148, looked up) Lysozyme C: KVFERCELARTLKRLGMDGYRGISLANWMCLAKWESGYNTRATNYNAGDRSTDYGIFQINSRYWCNDGKTPGAVNACHLSCSALLQDNIADAVACAKRVVRDPQGIRAWVAWRNRCQNRDVRQYVQGCGV | inactive | – | – | –
